Measurements published in article PMC5587760, “Halotolerant aminopeptidase M29 from Mesorhizobium SEMIA 3007 with biotechnological potential and its impact on biofilm synthesis” (Scientific Reports, 2017).

Legend:
[1] = target: MesoAmp, aminopeptidase M29 (Aminopeptidase T) from Mesorhizobium SEMIA 3007 (Mesorhizobium SEMIA 3007); test: SEC; Hiload16/600 Superdex 200, 100 mM Tris-HCl pH 8.0, 200 mM NaCl, 5% (w/v) glycerol, 0.5 mL/min; native mass estimated from a calibration curve of standard proteins and compared with the mass on SDS-PAGE
[2] = test system: CC(C)C[C@H](N)C(=O)Nc1ccc([N+](=O)[O-])cc1; test: purified protein; conditions: 3 mM Co2+, pH 8.5, 40 °C (abstract: 45 °C optimum)

## MesoAmp, aminopeptidase M29 (Aminopeptidase T) from Mesorhizobium SEMIA 3007 (enzyme)
[1]
  stoichiometry N: 2

## MesoAmp (Mesorhizobium sp. SEMIA 3007)
[2]
  Km: 236.4 ± 18.2 µM
  kcat: 712.1 ± 88.12 s⁻¹
